According to the supplement of paper PMC9112550, “Optimization of the antimicrobial peptide Bac7 by deep mutational scanning” (BMC Biology, 2022):

System: Escherichia coli TOP10
Assay: shrunken log2 fold change of peptide-encoding DNA abundance (4.5 h post-induction vs induction); higher = less antimicrobial activity (less host growth inhibition)
Settings: time post-induction: 4.5 h; library: site-saturation at positions 5, 18, 19, 20
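Note: peptides expressed intracellularly from a pBAD plasmid library in pooled LB shake-flask culture, induced with 0.3% L-arabinose, DNA abundance read by NGS, three biological replicates, DESeq2 with apeglm shrinkage.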

Sequence	shrunken log2 fold change
RRIRDRPPRLPRPRPRPQSEPRP	0.0514
RRIRMRPPRLPRPRPRPHSYPRP	-0.0152
RRIRLRPPRLPRPRPRPHCDPRP	0.00399
RRIRCRPPRLPRPRPRPNKLPRP	-0.283
RRIRPRPPRLPRPRPRPVVMPRP	-0.174
RRIRERPPRLPRPRPRPNAGPRP	0.0608
RRIRRRPPRLPRPRPRPYQGPRP	-0.00892
RRIRHRPPRLPRPRPRPMPEPRP	0.283
RRIRCRPPRLPRPRPRPVQCPRP	0.207
RRIRFRPPRLPRPRPRPMINPRP	-0.208
RRIRWRPPRLPRPRPRPPTTPRP	0.277
RRIRHRPPRLPRPRPRPAQGPRP	-0.197
RRIRSRPPRLPRPRPRPSAVPRP	0.091
RRIRGRPPRLPRPRPRPYKEPRP	-0.375
RRIRSRPPRLPRPRPRPIWFPRP	0.112
RRIRLRPPRLPRPRPRPLAKPRP	0.0773
RRIRWRPPRLPRPRPRPTAEPRP	1.76
RRIRFRPPRLPRPRPRPAHSPRP	-0.156
RRIRFRPPRLPRPRPRPQDHPRP	-0.391
RRIRCRPPRLPRPRPRPNVVPRP	0.0385
RRIRWRPPRLPRPRPRPIEGPRP	-0.000175
RRIRNRPPRLPRPRPRPPVWPRP	0.476
RRIRHRPPRLPRPRPRPMCDPRP	-0.0945
RRIRTRPPRLPRPRPRPMWIPRP	-0.222
RRIRERPPRLPRPRPRPFTNPRP	-0.457

Sequence	shrunken log2 fold change
RRIRFRPPRLPRPRPRPKELPRP	-0.127
RRIRWRPPRLPRPRPRPGPIPRP	0.171
RRIRQRPPRLPRPRPRPQPDPRP	-0.00546
RRIRLRPPRLPRPRPRPRQFPRP	0.196
RRIRGRPPRLPRPRPRPNSDPRP	-0.0204
RRIRCRPPRLPRPRPRPVYGPRP	-0.747
RRIRGRPPRLPRPRPRPEHNPRP	0.327
RRIRARPPRLPRPRPRPTISPRP	0.0389
RRIRGRPPRLPRPRPRPRTEPRP	0.755
RRIRYRPPRLPRPRPRPTLAPRP	0.239
RRIRRRPPRLPRPRPRPLKHPRP	0.208
RRIRKRPPRLPRPRPRPWQMPRP	0.0764
RRIRRRPPRLPRPRPRPFTRPRP	-0.0292
RRIRHRPPRLPRPRPRPINNPRP	-0.7
RRIRERPPRLPRPRPRPTWTPRP	-0.07
RRIRVRPPRLPRPRPRPGTLPRP	-0.174
RRIRMRPPRLPRPRPRPIDMPRP	-0.0621
RRIRTRPPRLPRPRPRPKCPPRP	0.281
RRIRMRPPRLPRPRPRPSGPPRP	0.205
RRIRTRPPRLPRPRPRPKYKPRP	-0.407
RRIRKRPPRLPRPRPRPAEWPRP	0.0965
RRIRLRPPRLPRPRPRPGDGPRP	0.869
RRIRDRPPRLPRPRPRPSRNPRP	0.326
RRIRFRPPRLPRPRPRPNREPRP	-0.181
RRIRGRPPRLPRPRPRPGRSPRP	0.85

Sequence	shrunken log2 fold change
RRIRNRPPRLPRPRPRPSCLPRP	-0.4
RRIRYRPPRLPRPRPRPKNCPRP	-0.0167
RRIRPRPPRLPRPRPRPDYVPRP	-0.343
RRIRGRPPRLPRPRPRPTICPRP	0.601
RRIRGRPPRLPRPRPRPHQLPRP	0.339
RRIRMRPPRLPRPRPRPFYVPRP	-0.514
RRIRARPPRLPRPRPRPVRTPRP	1.06
RRIRLRPPRLPRPRPRPIQLPRP	-0.235
RRIRIRPPRLPRPRPRPILLPRP	-0.266
RRIRKRPPRLPRPRPRPEHMPRP	0.829
RRIRVRPPRLPRPRPRPVCLPRP	0.619
RRIRVRPPRLPRPRPRPCECPRP	0.00846
RRIRRRPPRLPRPRPRPSNIPRP	-0.528
RRIRQRPPRLPRPRPRPSDYPRP	-0.0346
RRIRGRPPRLPRPRPRPLHYPRP	-0.0826
RRIRRRPPRLPRPRPRPEQPPRP	0.389
RRIRCRPPRLPRPRPRPDWQPRP	-0.0213
RRIRWRPPRLPRPRPRPVHAPRP	0.109
RRIRPRPPRLPRPRPRPRCCPRP	0.119
RRIRTRPPRLPRPRPRPHESPRP	-0.0124
RRIRPRPPRLPRPRPRPCVLPRP	-0.0304
RRIRARPPRLPRPRPRPVAKPRP	0.577
RRIRKRPPRLPRPRPRPWNSPRP	0.0199
RRIRRRPPRLPRPRPRPDSLPRP	0.0868
RRIRWRPPRLPRPRPRPMGMPRP	0.403
